The source of these data is US20150315607A1 (ACADEMIA SINICA, published 2015).

B1: ETERNAL TAPETUM 1 (EAT1) (other)
chain: MIVGAGYFEDSHDQSLMAGSLIHDSNQAPASSENTSIDLQKFKVHPYSTEALSNTANLAEAARAINHLQHQLEIDLEQEVPPVETANWDPAICTIPDHIINHQFSEDPQNILVEQQIQQYDSALYPNGVYTPAPDLLNLMQCTMAPAFPATTSVFGDTTLNGTNYLDLNGELTGVAAVPDSGSGLMFASDSALQLGYHGTQSHLIKDICHSLPQNYGLFPSEDERDVIIGVGSGDLFQEIDDRQFDSVLECRRGKGEFGKGKGKANFATERERREQLNVKFRTLRMLFPNPTKNDRASIVGDAIEYIDELNRTVKELKILVEQKRHGNNRRKVLKLDQEAAADGESSSMRPVRDDQDNQLHGAIRSSWVQRRSKECHVDVRIVDDEVNIKLTEKKKANSLLHAAKVLDEFQLELIHVVGGIIGDHHIFMFNTKVSEGSAVYACAVAKKLLQAVDVQHQALDIFN

A value given as a limit tells only on which side of the number the result lay.

Experiment [1] has as its target TAPETUM …ON …ON (TDR1) (Oryza sativa (rice), UniProt Q6YUS3 1-552). In words: cell-based or functional assay.
Experiment [2] has as its target B1. In words: yeast two-hybrid and BiFC (FIG. 13).
Experiment [3] deals with T1, CYN1-EAT1 (Oryza sativa (rice), UniProt Q7X8R0 1-464).
T1 construct: BiFC construct expressed in rice protoplasts
T1 sequence: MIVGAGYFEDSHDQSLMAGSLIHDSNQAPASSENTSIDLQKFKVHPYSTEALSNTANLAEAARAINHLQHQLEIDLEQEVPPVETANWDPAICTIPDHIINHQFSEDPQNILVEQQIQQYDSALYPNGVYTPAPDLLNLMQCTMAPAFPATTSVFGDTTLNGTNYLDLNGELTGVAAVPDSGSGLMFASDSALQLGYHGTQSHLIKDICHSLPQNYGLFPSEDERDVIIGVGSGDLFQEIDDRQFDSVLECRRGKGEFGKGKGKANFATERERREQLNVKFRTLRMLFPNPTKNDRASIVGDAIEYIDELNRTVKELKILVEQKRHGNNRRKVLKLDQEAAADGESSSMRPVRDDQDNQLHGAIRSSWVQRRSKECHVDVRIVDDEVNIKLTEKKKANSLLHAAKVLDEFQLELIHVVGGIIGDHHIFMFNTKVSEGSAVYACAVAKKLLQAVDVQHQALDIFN
In words: BiFC in rice protoplasts.
Procedure: Next, the tested genes were introduced into pSAT5-DEST_CYN1 and pSAT4(A)-DEST_NYN1. Ballistic bombardment-mediated transient transformation in rice protoplasts was carried out following a previously published protocol³⁶. Florescence images were photographed on a LSM 780 Plus ELYRA S.1 confocal microscope with Plan-Apochromat 40×/1.4 oil objective lens (Zeiss, Germany).

With B1, the “Luc expression from the EAT1 promoter (EAT1pro-Luc) with bHLH142, TDR1 and additional EAT1, transient assay in rice protoplasts” value in experiment [1] is 18 fold.

B2: transcription factor bHLH142 (other)
chain: MYHPQCELLMPLESLEMDVGQSHLAAAVAAAMPGELNFHLLHSLDAAAAAASSTAASASSQPTVDYFFGGADQQPPPPAAMQYDQLAAPHHHQTVAMLRDYYGGHYPPAAAAAAATEAYFRGGPRTAGSSSLVFGPADDESAFMVGPFESSPTPRSGGGRKRSRATAGFHGGGPANGVEKKEKQRRLRLTEKYNALMLLIPNRTKEDRATVISDAIEYIQELGRTVEELTLLVEKKRRRREMQGDVVDAATSSVVAGMDQAAESSEGEVMAAAAMGAVAPPPRQAPIRSTYIQRRSKETFVDVRIVEDDVNIKLTKRRRDGCLAAASRALDDLRLDLVHLSGGKIGDCHIYMFNTKIHSGSPVFASAVASRLIEVVDEY
notes: Rice bHLH transcription factor as named in general statements and as 35S-driven effector in the EAT1pro-Luc protoplast assay; also called Os01g0293100
Take B2: the “Luc expression from the EAT1 promoter (EAT1pro-Luc), transient assay in rice protoplasts” value in experiment [1] is ≤ 30 fold. Further, the binding result in experiment [2] was “no binding”.

B3: NYN1-bHLH142 (other, not shown: large carriers)
chain: MYHPQCELLMPLESLEMDVGQSHLAAAVAAAMPGELNFHLLHSLDAAAAAASSTAASASSQPTVDYFFGGADQQPPPPAAMQYDQLAAPHHHQTVAMLRDYYGGHYPPAAAAAAATEAYFRGGPRTAGSSSLVFGPADDESAFMVGPFESSPTPRSGGGRKRSRATAGFHGGGPANGVEKKEKQRRLRLTEKYNALMLLIPNRTKEDRATVISDAIEYIQELGRTVEELTLLVEKKRRRREMQGDVVDAATSSVVAGMDQAAESSEGEVMAAAAMGAVAPPPRQAPIRSTYIQRRSKETFVDVRIVEDDVNIKLTKRRRDGCLAAASRALDDLRLDLVHLSGGKIGDCHIYMFNTKIHSGSPVFASAVASRLIEVVDEY
notes: BiFC construct expressed in rice protoplasts
Take B3: the binding result in experiment [3] is on record as “no binding”.
